Laboratory results as given in publication PMC7196576, “Structural changes of a bacteriophage upon DNA packaging and maturation” (Protein & Cell, 2020).

B1: tail fiber gp17 of bacteriophage T7 (natural protein, Escherichia coli bacteriophage T7, UniProt P03748 1-553, looked up)
chain: MANVIKTVLTYQLDGSNRDFNIPFEYLARKFVVVTLIGVDRKVLTINTDYRFATRTTISLTKAWGPADGYTTIELRRVTSTTDRLVDFTDGSILRAYDLNVAQIQTMHVAEEARDLTTDTIGVNNDGHLDARGRRIVNLANAVDDRDAVPFGQLKTMNQNSWQARNEALQFRNEAETFRNQAEGFKNESSTNATNTKQWRDETKGFRDEAKRFKNTAGQYATSAGNSASAAHQSEVNAENSATASANSAHLAEQQADRAEREADKLENYNGLAGAIDKVDGTNVYWKGNIHANGRLYMTTNGFDCGQYQQFFGGVTNRYSVMEWGDENGWLMYVQRREWTTAIGGNIQLVVNGQIITQGGAMTGQLKLQNGHVLQLESASDKAHYILSKDGNRNNWYIGRGSDNNNDCTFHSYVHGTTLTLKQDYAVVNKHFHVGQAVVATDGNIQGTKWGGKWLDAYLRDSFVAKSKAWTQVWSGSAGGGVSVTVSQDLRFRNIWIKCANNSWNFFRTGPDGIYFIASDGGWLRFQIHSNGLGFKNIADSRSVPNAIMVENE
notes: tail fiber protein gp17, Escherichia coli bacteriophage T7; only the N-terminus (a jelly-roll barrel and a 22-residue alpha-helix) was resolved; Native protein in the virion; six trimers a phage; The distal parts of the fibers were too flexible to be resolved; source: in mature T7 phage purified from cells
B2: nozzle protein gp12 of bacteriophage T7 (natural protein, Escherichia coli bacteriophage T7, UniProt P03747 1-794, looked up)
chain: MALISQSIKNLKGGISQQPDILRYPDQGSRQVNGWSSETEGLQKRPPLVFLNTLGDNGALGQAPYIHLINRDEHEQYYAVFTGSGIRVFDLSGNEKQVRYPNGSNYIKTANPRNDLRMVTVADYTFIVNRNVVAQKNTKSVNLPNYNPNQDGLINVRGGQYGRELIVHINGKDVAKYKIPDGSQPEHVNNTDAQWLAEELAKQMRTNLSDWTVNVGQGFIHVTAPSGQQIDSFTTKDGYADQLINPVTHYAQSFSKLPPNAPNGYMVKIVGDASKSADQYYVRYDAERKVWTETLGWNTEDQVLWETMPHALVRAADGNFDFKWLEWSPKSCGDVDTNPWPSFVGSSINDVFFFRNRLGFLSGENIILSRTAKYFNFYPASIANLSDDDPIDVAVSTNRIAILKYAVPFSEELLIWSDEAQFVLTASGTLTSKSVELNLTTQFDVQDRARPFGIGRNVYFASPRSSFTSIHRYYAVQDVSSVKNAEDITSHVPNYIPNGVFSICGSGTENFCSVLSHGDPSKIFMYKFLYLNEELRQQSWSHWDFGENVQVLACQSISSDMYVILRNEFNTFLARISFTKNAIDLQGEPYRAFMDMKIRYTIPSGTYNDDTFTTSIHIPTIYGANFGRGKITVLEPDGKITVFEQPTAGWNSDPWLRLSGNLEGRMVYIGFNINFVYEFSKFLIKQTADDGSTSTEDIGRLQLRRAWVNYENSGTFDIYVENQSSNWKYTMAGARLGSNTLRAGRLNLGTGQYRFPVVGNAKFNTVYILSDETTPLNIIGCGWEGNYLRRSSGI
notes: nozzle protein gp12, Escherichia coli bacteriophage T7; Native protein in the virion; hexameric tube; source: in mature T7 phage purified from cells
B3: portal protein gp8 of bacteriophage T7 (natural protein, Escherichia coli bacteriophage T7, UniProt P03728 1-536, looked up)
chain: MAEKRTGLAEDGAKSVYERLKNDRAPYETRAQNCAQYTIPSLFPKDSDNASTDYQTPWQAVGARGLNNLASKLMLALFPMQTWMRLTISEYEAKQLLSDPDGLAKVDEGLSMVERIIMNYIESNSYRVTLFEALKQLVVAGNVLLYLPEPEGSNYNPMKLYRLSSYVVQRDAFGNVLQMVTRDQIAFGALPEDIRKAVEGQGGEKKADETIDVYTHIYLDEDSGEYLRYEEVEGMEVQGSDGTYPKEACPYIPIRMVRLDGESYGRSYIEEYLGDLRSLENLQEAIVKMSMISSKVIGLVNPAGITQPRRLTKAQTGDFVTGRPEDISFLQLEKQADFTVAKAVSDAIEARLSFAFMLNSAVQRTGERVTAEEIRYVASELEDTLGGVYSILSQELQLPLVRVLLKQLQATQQIPELPKEAVEPTISTGLEAIGRGQDLDKLERCVTAWAALAPMRDDPDINLAMIKLRIANAIGIDTSGILLTEEQKQQKMAQQSMQMGMDNGAAALAQGMAAQATASPEAMAAAADSVGLQPGI
notes: portal protein gp8, Escherichia coli bacteriophage T7; domains clip (294-334), stem (335-356 and 269-293), wing (1-268, 357-427), crown (428-492), C-terminal helical barrel; Native protein in the virion; dodecamer at one vertex; The C-terminal barrel is not seen in capsid II; also called T7 portal; source: in mature T7 phage and T7 capsid II particles purified from cells; copies: 12
B4: adaptor protein gp11 of bacteriophage T7 (natural protein, Escherichia coli bacteriophage T7, UniProt P03746 1-196, looked up)
chain: MRSYDMNVETAAELSAVNDILASIGEPPVSTLEGDANADAANARRILNKINRQIQSRGWTFNIEEGITLLPDVYSNLIVYSDDYLSLMSTSGQSIYVNRGGYVYDRTSQSDRFDSGITVNIIRLRDYDEMPECFRYWIVTKASRQFNNRFFGAPEVEGVLQEEEDEARRLCMEYEMDYGGYNMLDGDAFTSGLLTR
notes: adaptor protein gp11, Escherichia coli bacteriophage T7; Native protein in the virion; dodecameric ring; also called tail adaptor; source: in mature T7 phage purified from cells; copies: 12

Molecular target: the molecule itself
Experiment: cryo-EM structure; mature T7 phage purified from cells; icosahedral, symmetry-mismatch and local reconstructions (shell 3.5 Å, asymmetric 7 Å, portal-tail complex 3.8 Å, core 6.0 Å)

Q: For B1, which “stoichiometry N” value is on record?
A: 3

Q: How did the “stoichiometry N” value turn out when B2 was run?
A: 6

Q: For B3, which “stoichiometry N” value is on record?
A: 12

Q: For B4, which “stoichiometry N” value is on record?
A: 12
